Data on 53 sequences can be found in the supplement of paper PMC10567573.

± gives the standard deviation.

The nature of this data set: protein stability index of a GFP-peptide fusion (GPS, HEK-293T) (PSI 1-6); higher = more stable.
[1] abbreviates: treatment: DMSO, c terminus: a fixed tail appended.
Where [2] appears, read: treatment: MLN4924 1 uM, 8 h, c terminus: a fixed tail appended.
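Also: 24-mer peptide tiles fused after GFP, lentivirally expressed, FACS-sorted into six equal bins by GFP/DsRed ratio, decoded by Illumina sequencing, PSI is the read-weighted mean bin number.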

As for LPVDDDSDLNVVASFDRRGEYIYT [RBBP5], the protein stability index runs as follows: under setting [1], 3.41 ± 0.25; under setting [2], 3.7 ± 0.28.

With LPYQRRYRERRDSDTYRCEERSPS [CLK3], the protein stability index reads like this: under setting [1], 4.77 ± 0.12; under setting [2], 4.81 ± 0.22.

On to LQAPFLPPKAPPPVIKIPECPSMG [RHOBTB1], for which the protein stability index under setting [1] was determined as 3.6 ± 0.23 and the protein stability index under setting [2] was found to be 3.53 ± 0.57.

As for LQFDPAPRRGEPHVTRRTPDYFL [PPP2CA], the protein stability index runs as follows: (treatment: DMSO, c terminus: native) 4.16 ± 0.3; (treatment: MLN4924 1 uM, 8 h, c terminus: native) 4.18 ± 0.18.

As to LQRPSYKFFFKSMDDDFGVVKEEI [DVL3], the protein stability index by setting is: under setting [1], 2.76 ± 0.29; under setting [2], 2.85 ± 0.35.

As for LRERVKKVKRSLRQARKKGRHLEL [CCDC3], the protein stability index is, setting by setting: under setting [1], 3.36 ± 0.39; under setting [2], 3.58 ± 0.71.

With LRKQLQPTHCKYEGPRKARRLWFA, the protein stability index runs as follows: under setting [1], 2.43 ± 0.089; under setting [2], 2.07 ± 0.25.

On to LRLEEPRMDFAAKLMKNIRFPLMT [KLHL13], for which the protein stability index by setting is: under setting [1], 2.31 ± 0.29; under setting [2], 2.43 ± 0.37.

With LRNFNSAKDMKKAVAHMKYMGKGS [MATN2], the protein stability index under setting [1] was 3.05 ± 0.37 and the protein stability index under setting [2] stood at 3.43 ± 0.46.

LRQLTAELAEHRCHPVERGIKSKE [PSD2] gave a protein stability index under setting [1] of 3.99 ± 0.26 and a protein stability index under setting [2] of 4.2 ± 0.043.

Regarding LRRGASVNRTTRTNSTPLRAACFD [FEM1A], the protein stability index under setting [1] was determined as 3.81 ± 0.38 and the protein stability index under setting [2] turned out to be 3.87 ± 0.31.

Take LRYQETPGPREALSQLRVLCCEWL [ZNF232]: the protein stability index is 2.13 ± 0.23 under setting [1] and 2.29 ± 0.22 under setting [2].

For LSEAYRVLSREQSRRSYDDQLRSG [DNAJC4], the protein stability index by setting is: under setting [1], 3.2 ± 0.3; under setting [2], 3.03 ± 0.3.

Consider LSEEEEDEEEEEEEEEEGRFYYSE [KCNA4], for which the protein stability index reads like this: under setting [1], 5.2 ± 0.16; under setting [2], 5.19 ± 0.39.

As for LSPLRAASDPLLSSVSPAVSKASS [TFE3], the protein stability index stood at 4.47 ± 0.18 under setting [1] and 4.68 ± 0.067 under setting [2].

Turning to LSRVKAAALSERGQAEEELIKAKS [LRRC45], the protein stability index runs as follows: under setting [1], 5.01 ± 0.19; under setting [2], 4.97 ± 0.061.

Consider LSSLGENPQRQGLLKTPWRAASAM [GCH1], for which the protein stability index stood at 2.8 ± 0.23 under setting [1] and 3.17 ± 0.13 under setting [2].

In turn, LTCEFNNNHESLDEELHLLIISCR [FBXO39] displayed a protein stability index under setting [1] of 2.27 ± 0.41 and a protein stability index under setting [2] of 2.41 ± 0.39.

For LTILAKRKSLFDDKAVEIEELTYI [STX5], the protein stability index by setting is: under setting [1], 2.2 ± 0.35; under setting [2], 2.22 ± 0.49.

In the case of LTKSQVQDKPYKCTDCGKSFNHNA [ZNF8], the protein stability index worked out at 3.32 ± 0.21 under setting [1] and 3.54 ± 0.27 under setting [2].

Take LTTSQERELGIRQRDEQLRALQER [FBF1]: the protein stability index amounted to 5.02 ± 0.38 under setting [1] and 5.24 ± 0.29 under setting [2].

Consider LVPILIEAARNGKMKFVIGNGKNL [NSDHL], for which the protein stability index turned out to be 2.52 ± 0.3 under setting [1] and 2.36 ± 0.28 under setting [2].

For LVQHGVKPQEIVQVEIFSTNPDLY [IQUB], the protein stability index came out at 2.15 ± 0.21 under setting [1] and 2.32 ± 0.33 under setting [2].

Turning to LWSQSYEDSSNQEEEGPSTFPDLE [MAGEA3], the protein stability index turned out to be 5.26 ± 0.21 under setting [1] and 5.06 ± 0.14 under setting [2].

LYHSVKQGPISTKELADFIRERAT [FCHO1]: the protein stability index came to 2.35 ± 0.14 under setting [1] and 2.4 ± 0.29 under setting [2].

In the case of MACAYAPSGCAIACGGLDNKCSVY [GNB5], the protein stability index is, setting by setting: under setting [1], 2.44 ± 0.13; under setting [2], 2.31 ± 0.25.

MADSASESDTDGAGGNSSSSAAMQ [CCDC6]: the protein stability index under setting [1] amounted to 5.51 ± 0.08 and the protein stability index under setting [2] came to 5.38 ± 0.32.

Regarding MAKSVKYTVNFLEAKEGDLHRIEI [CARM1], the protein stability index runs as follows: under setting [1], 2.55 ± 0.61; under setting [2], 2.46 ± 0.58.

For MALRGPAGLGPGSRRPLDEAVAGA [DENND6A], the protein stability index under setting [1] worked out at 4.12 ± 0.42 and the protein stability index under setting [2] was 4.53 ± 0.19.

MARGRKMSKPRAVEAAAAAAAVAA [KMT5A] returned a protein stability index under setting [2] of 4.4 ± 0.55.

Regarding MASLSRPSLPSCLCSFLLLLLLQV [MOG], the protein stability index was 2.5 ± 0.41 under setting [1] and 2.28 ± 0.19 under setting [2].

As for MAVLKLTDQPPLVQAIFSGDPEEI [ANKRD44], the protein stability index was determined as 3.37 ± 0.28 under setting [1] and 3.43 ± 0.21 under setting [2].

With MDDSTEREQSRLTSCLKKREEMKL [TNFSF13B], the protein stability index reads like this: under setting [1], 5.04 ± 0.19; under setting [2], 5.16 ± 0.11.

As for MEADSPAGPGAPEPLAEGAAAEFS [SLC35F2], the protein stability index is 5.5 ± 0.27 under setting [1] and 5.48 ± 0.29 under setting [2].

Regarding MEEEDPMPRQISRQSSVTESTLYP [TPRG1], the protein stability index reads like this: under setting [1], 5.1 ± 0.32; under setting [2], 5.26 ± 0.34.

MEEQREALRKIIKTLAVKNEEIQS [FSD1] had a protein stability index under setting [1] of 3.15 ± 0.1 and a protein stability index under setting [2] of 3.16 ± 0.27.

MEEVLLLGLKDKEGYTSFWNDCIS [GOLPH3L]: the protein stability index by setting is: under setting [1], 2.29 ± 0.29; under setting [2], 2.61 ± 0.27.

Take MEGQRQESHATLTLAQAHFNNGEY [TTC32]: the protein stability index by setting is: under setting [1], 4.42 ± 0.33; under setting [2], 4.39 ± 0.18.

Sequence MEMAKFRYILPVYGICREPVGLVM [RIPK4] registered a protein stability index under setting [1] of 2.69 ± 0.39 and a protein stability index under setting [2] of 3.08 ± 0.86.

MERPDKAALNALQPPEFRNESSLA [VMA21]: the protein stability index runs as follows: under setting [1], 4.77 ± 0.26; under setting [2], 4.84 ± 0.088.

In the case of MGVSSVIHPKNPHAPTIHFNYRYF [CPOX], the protein stability index came to 2.16 ± 0.35 under setting [1] and 2.12 ± 0.18 under setting [2].

Take MLCSQPGLANSSRVRGRVGTIRPV [C22orf15]: the protein stability index came to 3.23 ± 0.27 under setting [1] and 3.37 ± 0.2 under setting [2].

For MNCLPSNRTLWRLDLAGNNIPGDV [LRRC45], the protein stability index by setting is: under setting [1], 2.75 ± 0.37; under setting [2], 2.86 ± 0.4.

Take MPAHLLQDDISSSYTTTTTITAPP [SCD]: the protein stability index turned out to be 3.99 ± 0.21 under setting [1] and 3.88 ± 0.28 under setting [2].

Take MPDEPVEAPALPAPAAPMVSKGAE [BRD3]: the protein stability index runs as follows: under setting [1], 5.17 ± 0.37; under setting [2], 5.37 ± 0.3.

For the sequence MPGDTDDAFPVHRVMMASASDYFK [KLHL13], the protein stability index is, setting by setting: under setting [1], 3.66 ± 0.35; under setting [2], 3.6 ± 0.13.

MPKNSKVTQREHSSEHVTESVADL [SLC6A17] displayed a protein stability index under setting [1] of 5.4 ± 0.14 and a protein stability index under setting [2] of 5.45 ± 0.085.

Regarding MQQLYQVQLAQQQAALQKQQEVVV [ACBD3], the protein stability index amounted to 2.96 ± 0.19 under setting [1] and 3.05 ± 0.22 under setting [2].

As to MRDQYEQMAEKNRRDAETWFLSKT [KRT16], the protein stability index is 4.29 ± 0.089 under setting [1] and 4.31 ± 0.12 under setting [2].

MRLSWSVAQGPFDSFVVQYEDTNG [TNXB]: the protein stability index under setting [1] stood at 2.26 ± 0.17 and the protein stability index under setting [2] is 2.21 ± 0.12.

For MRVGPVRSAMSGASQPRGPALLFP [TRIB1], the protein stability index by setting is: under setting [1], 3.48 ± 0.65; under setting [2], 3.08 ± 0.24.

For the sequence MSGGPMGGRPGGRGAPAVQQNIPS [WAS], the protein stability index was 4.31 ± 0.35 under setting [1] and 4.62 ± 0.18 under setting [2].

As to MSRRTRCEDLDELHYQDTDSDVPE [MYBL2], the protein stability index by setting is: under setting [1], 5.33 ± 0.2; under setting [2], 5.59 ± 0.2.
